Data on two substances can be found in article PMC9694015.

In assay [1] the target is bacterial chalcone isomerase (CHI) from Eubacterium ramulus, His33Ala variant (Eubacterium ramulus) (UniProt V9P0A9). Nature of the assay: crystal structure; hanging drop at 293 K, 6.8 mg/mL protein in 50 mM sodium phosphate pH 6.8; reservoir ammonium sulphate (1.8 M for CHI, 1.5 M for CHI_H33A), 0.2 M NaCl, 0.1 M HEPES pH 7.5; crystals soaked 10 min with 2.5 mM (+)-taxifolin; data at 100 K; hexamer seen in the asymmetric unit.

Assay [2] concerns the target bacterial chalcone isomerase (CHI) from Eubacterium ramulus (Eubacterium ramulus) (UniProt V9P0A9). The description is as above.

In the case of “bacterial chalcone isomerase (CHI) from Eubacterium ramulus, His33Ala variant (from UniProt V9P0A9 1-283) (enzyme)”, the stoichiometry N in assay [1] came out at 6.

Consider “bacterial chalcone isomerase (CHI) from Eubacterium ramulus (from UniProt V9P0A9 1-283) (enzyme)”, for which, in assay [2], the stoichiometry N stood at 6.

In general, stoichiometry N refers to the number of molecules, sites or subunits per partner or assembly.
